Experimental data as given in patent publication US11306156.
Each block holds one substance with its values, some of them ahead of it.

What was measured:
[1] = biological target: Cetuximab light chain F116C_Q124R_T178R; assay: SMCA, LC-MS; change vs wild-type bispecific; competing light chain m14
[2] = biological target: Cetuximab light chain F116C_Q124R_T178R; assay: SMCA: H1, H2, L1, L2 co-expressed in CHO-3E7, protein A purified, LC-MS; competing light chain m6; against wild-type bispecific
[3] = biological target: Cetuximab light chain Q38E_Q124E_Q160E_T180E; assay: SMCA: H1, H2, L1, L2 co-expressed in CHO-3E7, protein A purified, LC-MS; competing light chain m14; against wild-type bispecific
[4] = biological target: Cetuximab light chain Q124E_L135W_Q160E_T180E; assay: SMCA, LC-MS; change vs wild-type bispecific; competing light chain m12
[5] = biological target: Cetuximab light chain Q124E_Q160E_T180E; assay: SMCA, LC-MS; change vs wild-type bispecific; competing light chain m15
[6] = biological target: tissue factor (TF) antigen (UniProt P13726); assay: SPR (ProteOn XPR36), Fab captured by His tag on anti-penta-His surface, TF injected as analyte, 1:1 fit; * = estimated from a Fab differing only in the L chain tag
[7] = biological target: tissue factor (TF) antigen (UniProt P13726); assay: SPR (ProteOn XPR36), Fab captured by His tag on anti-penta-His surface, TF injected as analyte; against wild-type D3H44 Fab; * = estimated from a Fab differing only in the L chain tag
[8] = biological target: D3H44 light chain F116C_Q124R_T178R; assay: SMCA, LC-MS of 4 co-expressed chains; competing light chain m32
[9] = biological target: D3H44 light chain F116C_Q124R_T178R; assay: SMCA, LC-MS; change vs wild-type bispecific; competing light chain m32
[10] = biological target: D3H44 light chain F116C_Q124R_T178R; assay: SMCA: 2 heavy + 2 light chains co-expressed, protein A, LC-MS; competing light chain m12
[11] = biological target: D3H44 light chain F116A_Q124R_L135V_T178R; assay: SMCA, LC-MS of 4 co-expressed chains; competing light chain m29
[12] = biological target: D3H44 light chain F116A_Q124R_L135V_T178R; assay: SMCA, LC-MS; change vs wild-type bispecific; competing light chain m29
[13] = biological target: D3H44 light chain F116A_Q124R_L135V_T178R; assay: SMCA, LC-MS; change vs wild-type bispecific; competing light chain m45
[14] = biological target: D3H44 light chain F116A_Q124R_L135V_T178R; assay: SMCA: 2 heavy + 2 light chains co-expressed, protein A, LC-MS; competing light chain m41

Substance: Cetuximab heavy chain Q39R_H172R_Q179K
- Change in % H2L2 Pairing (over all H2 species) with respect to wild type [3]: 0.6%

Substance: Cetuximab heavy chain Q179K
- Change in % H2L2 Pairing (over all H2 species) with respect to wild type [4]: 1.7%
- Change in % H2L2 Pairing (over all H2 species) with respect to wild type [5]: 0%

Substance: D3H44 H1L1 Fab heterodimer of LCCA Set # 9645 (H1 L143E_K145T_Q179E, L1 Q124K_T178R)
- Kd [6]: 0.14 nM
- change in median KD compared to wild type, -(log(KD design)-log(KD wt)) [7]: 0.05 log

Substance: D3H44 heavy chain A139C_L143E_K145T_Q179E (from UniProt P0DOX5 2-448)
- % H1L1 Pairing (over all H1 species) [8]: 100%
- Change in % H1L1 Pairing (over all H1 species) with respect to wild type [9]: 38.1%
- % H1L1 Pairing (over all H1 species) [10]: 100%

Next, values leading:

- Change in % H2L2 Pairing (over all H2 species) with respect to wild type [1]: 0%
- Change in % H2L2 Pairing (over all H2 species) with respect to wild type [2]: 3%
Substance: Cetuximab heavy chain A139C_L143E_K145T_Q179E

- % H1L1 Pairing (over all H1 species) [11]: 100%
- Change in % H1L1 Pairing (over all H1 species) with respect to wild type [12]: 41.9%
- Change in % H1L1 Pairing (over all H1 species) with respect to wild type [13]: 58.1%
- % H1L1 Pairing (over all H1 species) [14]: 100%
Substance: D3H44 heavy chain A139W_L143E_K145T_Q179E (from UniProt P0DOX5 2-448)
